Source: paper PMC6975171, “Deep sequencing of mitochondrial DNA and characterization of a novel POLG mutation in a patient with arPEO”

How the values were obtained:
POLγA WT;POLγB = POLγA WT;POLγB (Homo sapiens?;Homo sapiens?, UniProt P54098;Q9UHN1 26-1239;25-485, |); assay: EMSA; 0.3 mM ddGTP, 3 mM dCTP; 10 fmol DNA in 15 µL; 25 mM Tris-HCl pH 7.8, 1 mM DTT, 0.1 mg/mL BSA, 10% glycerol, 0.3 mM ddGTP, 3 mM dCTP, no added Mg2+ stated; 10 min at ambient temperature; 6% native PAGE in 0.5x TBE; settings: protein: recombinant;recombinant; tags: 6xHis;6xHis; copies: 1;2; label: 32P 5' end of the 21-nt primer (S1); 21 bp duplex, 5' overhang 15 nt on S2 (template strand), recessed primer 3' end
POLγA WT;POLγB, sequence (P54098 26-1239, chain 1 of 2): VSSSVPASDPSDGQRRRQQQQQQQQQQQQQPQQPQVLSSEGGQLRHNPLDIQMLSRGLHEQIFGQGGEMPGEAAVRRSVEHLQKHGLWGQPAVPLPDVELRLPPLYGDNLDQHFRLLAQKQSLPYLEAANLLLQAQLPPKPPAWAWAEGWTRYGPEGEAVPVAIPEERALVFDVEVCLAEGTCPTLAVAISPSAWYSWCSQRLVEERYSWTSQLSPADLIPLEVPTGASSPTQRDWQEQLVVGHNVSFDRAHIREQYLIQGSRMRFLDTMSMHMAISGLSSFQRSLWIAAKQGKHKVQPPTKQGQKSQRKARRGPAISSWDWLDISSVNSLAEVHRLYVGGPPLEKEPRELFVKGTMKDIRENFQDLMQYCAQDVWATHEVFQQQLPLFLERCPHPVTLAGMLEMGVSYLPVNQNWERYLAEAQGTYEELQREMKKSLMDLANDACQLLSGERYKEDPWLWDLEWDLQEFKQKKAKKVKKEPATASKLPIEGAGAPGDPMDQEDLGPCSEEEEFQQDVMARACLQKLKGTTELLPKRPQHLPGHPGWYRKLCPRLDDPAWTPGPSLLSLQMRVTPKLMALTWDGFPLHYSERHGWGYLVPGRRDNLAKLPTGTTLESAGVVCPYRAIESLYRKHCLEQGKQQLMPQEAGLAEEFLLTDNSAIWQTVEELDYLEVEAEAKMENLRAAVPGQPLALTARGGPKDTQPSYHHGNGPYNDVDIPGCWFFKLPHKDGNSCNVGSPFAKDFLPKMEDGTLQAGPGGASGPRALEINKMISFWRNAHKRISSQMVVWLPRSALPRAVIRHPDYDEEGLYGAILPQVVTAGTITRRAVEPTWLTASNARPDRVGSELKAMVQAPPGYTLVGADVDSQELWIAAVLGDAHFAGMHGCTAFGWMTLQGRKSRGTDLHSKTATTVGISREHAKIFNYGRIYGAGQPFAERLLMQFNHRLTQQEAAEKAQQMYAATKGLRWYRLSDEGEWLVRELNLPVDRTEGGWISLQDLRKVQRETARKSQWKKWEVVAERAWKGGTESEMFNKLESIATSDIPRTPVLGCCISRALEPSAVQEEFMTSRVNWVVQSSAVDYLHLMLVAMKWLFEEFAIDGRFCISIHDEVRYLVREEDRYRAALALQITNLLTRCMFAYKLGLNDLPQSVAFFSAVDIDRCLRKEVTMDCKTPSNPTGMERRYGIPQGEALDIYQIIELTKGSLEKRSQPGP
POLγA WT;POLγB, sequence (Q9UHN1 25-485, chain 2 of 2): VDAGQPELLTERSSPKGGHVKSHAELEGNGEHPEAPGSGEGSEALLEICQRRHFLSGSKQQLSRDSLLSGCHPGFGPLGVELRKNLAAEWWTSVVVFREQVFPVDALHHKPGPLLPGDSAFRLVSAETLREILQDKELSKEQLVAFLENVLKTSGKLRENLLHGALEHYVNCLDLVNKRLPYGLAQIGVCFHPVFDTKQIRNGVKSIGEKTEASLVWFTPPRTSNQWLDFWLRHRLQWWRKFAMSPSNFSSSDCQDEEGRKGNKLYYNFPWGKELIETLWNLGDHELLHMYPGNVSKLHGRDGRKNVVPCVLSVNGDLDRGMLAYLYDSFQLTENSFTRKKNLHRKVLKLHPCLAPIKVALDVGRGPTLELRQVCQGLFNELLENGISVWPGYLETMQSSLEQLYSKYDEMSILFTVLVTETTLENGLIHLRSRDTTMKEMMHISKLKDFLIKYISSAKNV

POLγA F197S;POLγB = POLγA F197S;POLγB (Homo sapiens?;Homo sapiens?, UniProt P54098;Q9UHN1 26-1239;25-485, F197S|); assay: as above; settings: protein: recombinant;recombinant; tags: 6xHis;6xHis; copies: 1;2; label: 32P 5' end of the 21-nt primer (S1); 21 bp duplex, 5' overhang 15 nt on S2 (template strand), recessed primer 3' end
POLγA F197S;POLγB, sequence (P54098 26-1239 F197S, chain 1 of 2): as the sequence (P54098 26-1239, chain 1 of 2) above, with F172S counted along it
POLγA F197S;POLγB, sequence (Q9UHN1 25-485, chain 2 of 2): as the sequence (Q9UHN1 25-485, chain 2 of 2) above

B1: 21/36-nt primed template (dsDNA)
DNA 1: GCGGTCGAGTCTAGAGGAGCC
DNA 2: GACTACGTCTATCCGGGCTCCTCTAGACTCGACCGC
B1: binds (POLγA WT;POLγB); binds (POLγA F197S;POLγB).
